What was measured:
Assay type in all cases: cell-based
[1] = system: membrane lipid composition of cells; experiment: Lipidomics profiling of cells overexpressing CD95 variants (membrane lipid composition, UMAP clustering); conditions: overexpressed using lentiviral vectors two weeks prior to lipidomics profiling
Description: (§1) FIG. 5: Changes of lipid composition of membranes of cells in the presence of CD95 variants. A) Shown are average mol % concentrations of the indicated lipid classes; Abbreviations: WT: wildtype CD95; KO: CD95-knockout; sM: single mutant (R171E), dM: double mutant (R192E/K193E); tM: triple mutant (R171E/R192E/K193E); PC: phosphatidylcholines; PE: phosphatidylethanolamines, PS: phosphatidylserines, PI: phosphatidylinositoles, SM: sphingomyelins, CE: cholesteryl esters. “a”X relates to acyl-X, e.g. aPC is Acyl-phosphatidylcholines; “e”X relates to Ether-X or X containing one odd-chain fatty acyl species. B) Clustering of cells based on lipid profile changes, UMAP representation. C) average cell size as cell area of cells expressing variants of CD95.
(§2) Indicated variants were overexpressed using lentiviral vectors two weeks prior to lipidomics profiling. […] Also, average cell size was decreased in cells expressing the triple mutant CD95, very similar to CD95 KO cells.

cell cycle = experiment: Cell cycle assessment of cells overexpressing CD95 variants; conditions: overexpressed using lentiviral vectors two weeks prior to cell cycle assessment
Description: FIG. 6: Effect of CD95 variants on cell cycle. Shown is the percentage of cells in G2, S, or G1 phase, respectively, in cell overexpressing effector polypeptides. […] Abbreviations as in FIG. 5.
Indicated variants were overexpressed using lentiviral vectors two weeks prior to cell cycle assessment.

cell size = experiment: Average cell size as cell area of cells expressing CD95 variants; conditions: lentiviral overexpression, very similar to CD95 KO cells
Description: as §1, §2

[2] = system: Akt phosphorylation (Ser 473); experiment: Western blot, fraction of phosphorylated Akt in cells overexpressing CD95 variants (Example 8); conditions: lentiviral overexpression two weeks prior, untreated or 20 ng/ml CD95-ligand or 100 ng/ml EGF-L for 10 minutes
Experimental: (§3) FIG. 7: Effect of CD95 variants on cell signaling; shown is relative content in pAkt and pEGFR in cells transfected to overexpress effector polypeptides as indicated. Abbreviations as in FIG. 5.
(§4) Indicated variants were overexpressed using lentiviral vectors two weeks prior to treatment. Cells were left untreated (co) or exposed to 20 ng/ml of CD95-ligand or 100 ng/ml of EGF-L for 10 minutes and the fraction phosphorylation among total Akt and EGFR measured by Western Blot.

EGFR phosphorylation = experiment: Western blot, fraction of phosphorylated EGFR in cells overexpressing CD95 variants (Example 8); conditions: lentiviral overexpression two weeks prior, untreated or 20 ng/ml CD95-ligand or 100 ng/ml EGF-L for 10 minutes
Experimental: as §3, §4

transferrin uptake = experiment: Transferrin uptake assay (endocytotic activity), flow cytometry; conditions: lentiviral overexpression two weeks prior, uptake after 10, 20 and 30 min
Experimental: FIG. 8: Effect of CD95 variants on endocytotic activity of cells. Shown is the relative transferrin uptake of treated cells over time, i.e. after 10, 20, and 30 min. Abbreviations as in FIG. 5.
Indicated variants were overexpressed using lentiviral vectors two weeks prior to assessment of the endocytotic activity by a transferrin uptake assay. Transferrin uptake was assessed after the indicated time points via flow cytometry.

AKT activation = experiment: Western blot pAKT (ser 473) relative to total Akt in T98G cells (Example 11); conditions: T98G cells serum starved, untreated or 100 ng/ml EGF-L for 10 mins
Experimental: (§5) FIG. 10: Impact of CD95 mutants on activation of Akt and EGFR. […] Abbreviations as in FIG. 5.
(§6) T98G cells were serum starved, control (Co) cells were left untreated otherwise stimulated with 100 ng/ml of EGF-L for 10 mins. Protein samples were analysed by western blot for pAKT (ser 473), pEGFR and pERK and the total amount of protein (pan antibody). Relative expression of the protein was calculated where phospho-proteins were normalized to their total proteins. […] TMD is CD95 with the indicated mutation(s). Protein lysates were also analysed for the level of cleaved and total caspase (FIG. 11).

EGFR activation = experiment: Western blot pEGFR relative to total EGFR in T98G cells (Example 11); conditions: T98G cells serum starved, untreated or 100 ng/ml EGF-L for 10 mins
Experimental: as §5, §6

Caspase 8 cleavage = experiment: Caspase-8 cleavage in protein lysates of T98G cells (apoptosis); conditions: upon EGFR stimulation
Experimental: FIG. 11: Impact of CD95 mutants on apoptosis (caspase-8 cleavage). Protein lysates were analysed for the level of cleaved and total caspase-8. […] Bar show, in each case from left to right, relative expression of total caspase, p44, p43, and p18.
as §6

| Molecule | changes in membrane lipid composition [1] | clustering of cells based on lipid profile changes (UMAP) [1] | effect on cell cycle (cells in G2, S or G1 phase) (cell cycle) | effect on cell cycle (cells in G2, S or G1 phase) (cell cycle; listed as double mutation variant) | average cell size (cell size) | effect on cell cycle (cells in G2, S or G1 phase) (cell cycle; listed as triple mutation variant) | Akt phosphorylation (Ser 473), fraction among total Akt [2] | EGFR phosphorylation, fraction among total EGFR (EGFR phosphorylation) | transferrin uptake (transferrin uptake) | level of AKT activation (pAKT ser 473 normalized to total) (AKT activation) | EGFR activation (pEGFR normalized to total) (EGFR activation) | Caspase 8 cleavage (Caspase 8 cleavage) |
| --- | --- | --- | --- | --- | --- | --- | --- | --- | --- | --- | --- | --- |
| double mutant: CD95 variant with R192E/K193E exchanges (cf. SEQ ID NO:31), expressed from lentiviral or AAV vector (protein, R192E/K193E double mutein (dM)) MLGIWTLLPLVLTSVARLSSKSVNAQVTDINSKGLELRKTVTTVETQNLEGLHHDGQFCHKPCPPGERKARDCTVNGDEPDCVPCQEGKEYTDKAHFSSKCRRCRLCDEGHGLEVEINCTRTQNTKCRCKPNFFCNSTVCEHCDPCTKCEHGIIKECTLTSNTKCKEEGSQSNLGWLCLLLLPIPLIVWVKEEEVQKTCRKHRKENQGSHESPTLNPETVAINLSDVDLSKYITTIAGVMTLSQVKGFVRKNGVNEAKIDEIKNDNVQDTAEQVQLLRNWHQLHGKKEAYDTLIKDLKKANLCTLAEKIQTIILKDITSDSENSNFRNEIQSLV | distinct changes in membrane lipid composition | clustered similarly | G1 arrest | strong G1 arrest |  |  |  |  |  |  |  |  |
| triple mutant: CD95 variant with R171E/R192E/K193E exchanges (cf. SEQ ID NO:32), expressed from lentiviral or AAV vector (protein, R171E/R192E/K193E triple mutein (tM)) MLGIWTLLPLVLTSVARLSSKSVNAQVTDINSKGLELRKTVTTVETQNLEGLHHDGQFCHKPCPPGERKARDCTVNGDEPDCVPCQEGKEYTDKAHFSSKCRRCRLCDEGHGLEVEINCTRTQNTKCRCKPNFFCNSTVCEHCDPCTKCEHGIIKECTLTSNTKCKEEGSESNLGWLCLLLLPIPLIVWVKEEEVQKTCRKHRKENQGSHESPTLNPETVAINLSDVDLSKYITTIAGVMTLSQVKGFVRKNGVNEAKIDEIKNDNVQDTAEQVQLLRNWHQLHGKKEAYDTLIKDLKKANLCTLAEKIQTIILKDITSDSENSNFRNEIQSLV | distinct changes in membrane lipid composition | very similar clustering to the KO cells | G1 arrest |  | decreased | strong G1 arrest | reduced Akt phosphorylation | increased EGFR phosphorylation | significantly reduced transferrin uptake | decrease in the level of AKT activation | increase in the EGFR activation | noticeable Caspase 8 cleavage |
| single mutant: CD95 variant with R171E exchange (cf. SEQ ID NO:30), expressed from lentiviral or AAV vector (protein, R171E single mutein (sM)) MLGIWTLLPLVLTSVARLSSKSVNAQVTDINSKGLELRKTVTTVETQNLEGLHHDGQFCHKPCPPGERKARDCTVNGDEPDCVPCQEGKEYTDKAHFSSKCRRCRLCDEGHGLEVEINCTRTQNTKCRCKPNFFCNSTVCEHCDPCTKCEHGIIKECTLTSNTKCKEEGSESNLGWLCLLLLPIPLIVWVKRKEVQKTCRKHRKENQGSHESPTLNPETVAINLSDVDLSKYITTIAGVMTLSQVKGFVRKNGVNEAKIDEIKNDNVQDTAEQVQLLRNWHQLHGKKEAYDTLIKDLKKANLCTLAEKIQTIILKDITSDSENSNFRNEIQSLV |  | clustered similarly |  |  |  |  |  |  | significantly reduced transferrin uptake |  |  |  |

— US20250136662A1, “CD95 POLYPEPTIDES” (Deutsches Krebsforschungszentrum Stiftung des öffentlichen …, priority 2021, published 2025)
